Source: patent publication US20050287136A1 (Amgen, published 2005)

Tests used:
[1] = target: T1, CTLA-4-IgG1 fusion protein (OM-CTLA4-IgG1, made in-house) (human); test: BIAcore, immobilised CTLA-4-Ig fusion, 878.7 RU
T1 construct: covalent dimer through cysteine 120 of CTLA-4; The marks for signal peptide (underline) and CTLA4 domain are lost in the text; also called CTLA-4-Ig fusion protein; human CTLA4-IgG

[2] = target: T1, CTLA-4-IgG1 fusion protein …; test: BIAcore, immobilised CTLA-4-Ig fusion, 457.2 RU
[3] = target: T2, CTLA-4-Ig(G4) (Repligen, Inc.) (UniProt P16410 37-161, limits assumed); test: competition ELISA, antibody with CTLA-4-Ig(G4) 0.3 nM on coated B7.2-Ig(G1)
T2 sequence (P16410 37-161 limits assumed): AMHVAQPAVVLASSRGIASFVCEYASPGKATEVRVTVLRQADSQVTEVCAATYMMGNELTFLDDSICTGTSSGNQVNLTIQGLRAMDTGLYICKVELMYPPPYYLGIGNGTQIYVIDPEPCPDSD

[4] = target: T1, CTLA-4-IgG1 fusion protein …; test: BIAcore, immobilised CTLA-4-Ig fusion, 504.5 RU
[5] = target: T2, CTLA-4-Ig(G4) (Repligen, Inc.); test: competition ELISA, antibody with CTLA-4-Ig(G4) 0.3 nM on coated B7.1-Ig(G1)
[6] = target: T1, CTLA-4-IgG1 fusion protein …; test: selectivity ELISA, coated CTLA-4/Ig against B7.2/Ig, antibody 1 ug/ml
[7] = target: T1, CTLA-4-IgG1 fusion protein …; test: BIAcore, immobilised CTLA-4-Ig fusion, 397.8 RU
[8] = target: T1, CTLA-4-IgG1 fusion protein …; test: selectivity ELISA, coated CTLA-4/Ig against CD44/Ig, antibody 1 ug/ml
[9] = target: T1, CTLA-4-IgG1 fusion protein …; test: selectivity ELISA, coated CTLA-4/Ig against CD28/Ig, antibody 1 ug/ml
[10] = target: T1, CTLA-4-IgG1 fusion protein …; test: selectivity ELISA, coated CTLA-4/Ig against B7.2/Ig
[11] = target: T2, CTLA-4-Ig(G4) (Repligen, Inc.); test: competition ELISA (separate experiment), antibody with CTLA-4-Ig(G4) 0.3 nM on coated B7.1-Ig(G1)
[12] = target: T1, CTLA-4-IgG1 fusion protein …; test: selectivity ELISA, coated CTLA-4/Ig against hIgG
[13] = target: T2, CTLA-4-Ig(G4) (Repligen, Inc.); test: competition ELISA (separate experiment), antibody with CTLA-4-Ig(G4) 0.3 nM on coated B7.2-Ig(G1)
[14] = target: T1, CTLA-4-IgG1 fusion protein …; test: selectivity ELISA, coated CTLA-4/Ig against CD28/Ig

T1 sequence (chain, as listed by the source): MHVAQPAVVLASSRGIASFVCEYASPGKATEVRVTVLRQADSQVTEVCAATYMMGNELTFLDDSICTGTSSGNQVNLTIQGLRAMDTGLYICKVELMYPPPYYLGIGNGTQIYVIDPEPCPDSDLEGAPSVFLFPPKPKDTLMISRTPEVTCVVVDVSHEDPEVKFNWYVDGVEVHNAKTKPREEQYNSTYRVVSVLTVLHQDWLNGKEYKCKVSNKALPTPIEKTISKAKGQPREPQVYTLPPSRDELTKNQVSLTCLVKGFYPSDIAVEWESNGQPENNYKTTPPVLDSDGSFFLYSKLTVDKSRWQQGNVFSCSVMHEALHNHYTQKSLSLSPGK

| Binder | Ka [1] | Kd [1] | koff [1] | kon [1] | Ka [2] | Kd [2] | koff [2] | kon [2] | IC50 [3] | Ka [4] | Kd [4] | koff [4] | kon [4] | IC50 [5] | other results |
| --- | --- | --- | --- | --- | --- | --- | --- | --- | --- | --- | --- | --- | --- | --- | --- |
| 4.10.2 (antibody, human IgG2, V domains shown, chain 1 pos 1: pyroglutamate from Gln (FIG. 9: NH2-Blocked, pQ), written Q, Fully human IgG2 kappa; VH DP-50, VK A27; also called CT4.10.2) VH: QVQLVESGGGVVQPGRSLRLSCVASGFIFSSHGIHWVRQAPGKGLEWVAVIWYDGRNKDYADSVKGRFTISRDNSKNTLYLQMNSLRAEDTAVYYCARVAPLGPLDYWGQGTLVTVSS VL: EFVLTQSPGTLSLSPGERATLSCRASQSISSNFLAWYQQKPGQAPRLLIYRPSSRATGIPDSFSGSGSGTDFTLTISRLEPEDFALYYCQQYGTSPFTFGPGTKVDIK | 3.9e+09 M⁻¹ | 0.254 nM | 0.000253 s⁻¹ | 1e+06 M⁻¹ s⁻¹ | 1.4e+09 M⁻¹ | 0.721 nM | 0.000505 s⁻¹ | 700000 M⁻¹ s⁻¹ | 1.5 nM | 2.2e+09 M⁻¹ | 0.455 nM | 0.00043 s⁻¹ | 940000 M⁻¹ s⁻¹ | 3.39 nM |  |
| 3.1.1 (antibody, human IgG2, V domains shown, chain 1 pos 1: pyroglutamate from Gln (FIG. 9: NH2-Blocked, pQ), written Q, Fully human IgG2 kappa; VH DP-50, VK 012; also called CT3.1.1) VH: QVQLVESGGGVVQPGRSLRLSCAASGFTFSSYGMHWVRQAPGKGLEWVAVIWYDGSNKYYADSVKGRFTISRDNSKNTLYLQMNSLRAEDTAVYYCARGARIITPCMDVWGQGTTVTVSS VL: DIQMTQSPSSLSASVGDRVTITCRASQSINTYLIWYQQKPGKAPNFLISATSILQSGVPSRFRGSGSGTNFTLTINSLHPEDFATYYCQQSYSTPFTFGPGTKVDIK | 1.07e+10 M⁻¹ | 0.093 nM | 9.6e-05 s⁻¹ | 1.04e+06 M⁻¹ s⁻¹ | 4.4e+09 M⁻¹ | 0.227 nM | 0.000165 s⁻¹ | 730000 M⁻¹ s⁻¹ | 0.45 nM | 5.5e+09 M⁻¹ | 0.182 nM | 0.000172 s⁻¹ | 950000 M⁻¹ s⁻¹ | 0.63 nM | selectivity ratio CTLA4/B7.2 [6]: > 500 :1; Ka [7]: 4.4e+09 M⁻¹; Kd [7]: 0.228 nM; koff [7]: 0.000207 s⁻¹; kon [7]: 910000 M⁻¹ s⁻¹; selectivity ratio CTLA4/CD44 [8]: > 500 :1; selectivity ratio CTLA4/CD28 [9]: > 500 :1 |
| 11.2.1 (antibody, human IgG2, kappa, V domains shown, also called CT11.2.1) VH: QVQLVESGGGVVQPGRSLRLSCAASGFTFSSYGMHWVRQAPGKGLEWVAVIWYDGSNKYYADSVKGRFTISRDNSKNTLYLQMNSLRAEDTAVYYCARDPRGATLYYYYYGMDVWGQGTTVTVSS VL: DIQMTQSPSSLSASVGDRVTITCRASQSINSYLDWYQQKPGKAPKLLIYAASSLQSGVPSRFSGSGSGTDFTLTISSLQPEDFATYYCQQYYSTPFTFGPGTKVEIKR |  |  |  |  |  |  |  |  |  |  |  |  |  |  | selectivity ratio CTLA4/B7.2 [10]: > 500 :1; IC50 [11]: 0.81 nM; selectivity ratio CTLA4/hIgG [12]: > 500 :1; IC50 [13]: 0.56 nM; selectivity ratio CTLA4/CD28 [14]: > 500 :1 |
